Data published in paper doi:10.1101/2022.03.18.484873 (bioRxiv, 2022).

Biological target: original 2019-nCoV Spike RBD protein (SARS-CoV-2, original 2019-nCoV (Wuhan), UniProt P0DTC2)
Assay: Luminex bead-based competitive binding assay

Binder | binding result
P2G3 human monoclonal antibody (P2G3 LS, human IgG1) (antibody, V domains shown) VH: EVQLVESGGGLVQPGRSLRLSCAASGFRFDDYALHWVRQAPEKGLEWVSGISWNSNNIGYAESVKGRFTISRDTAKKSLYLQMNDLRAEDTALYYCVKDRHYDSSGYFVNGFDIWGQGTLVTVSA VL: DIQLTQSPSFLSASVGDRVTVTCRASQGISSYVAWYQQKAGKAPTLLIYTASTLQSGVPSRFSGSGSGTEFTLTISSLQPEDFATYYCQQLHSYPVTFGQGTRLDIE | binds
P5C3 human monoclonal antibody (P5C3 LS) (antibody, V domains shown) VH: QMQLVQSGPEVKKPGTSVKVSCKASGFTFTSSAVQWVRQARGQRLEWIGWIVVGSGNTDYAQQFQERVTITRDMSTSTAYMELSSLGSEDTAVYYCAAPNCSGGSCYDGFDLWGQGTMVTVSS VL: EIVLTQSPGTLSLSPGERATLSCRGSQSVRSSYLGWYQQKPGQAPRLLIYGASSRATGIPDRFSGSGSGTDFTLTISRLEPEDFAVYYCQQYGSSPWTFGQGTKVEIK | binds
